# Measured values as given in the DeepSol protein solubility set.
# Assay: soluble on expression in E. coli; label from the status in PepcDB or PDB records
row,Sequence,soluble on expression in E. coli
1,MGSDKIHHHHHHMENFVFHNPTKIVFGRGTIPKIGEEIKNAGIRKVLFLYGGGSIKKNGVYDQVVDSLKKHGIEWVEVSGVKPNPVLSKVHEAVEVAKKEKVEAVLGVGGGSVVDSAKAVAAGALYEGDIWDAFIGKYQIEKALPIFDVLTISATGTEMNGNAVITNEKTKEKYGVSSKALYPKVSIIDPSVQFTLPKEQTVYGAVDAISHILEYYFDGSSPEISNEIAEGTIRTIMKMTERLIEKPDDYEARANLAWSATIALNGTMAVGRRGGEWACHRIEHSLSALYDIAHGAGLAIVFPAWMKYVYRKNPAQFERFAKKIFGFEGEGEELILKGIEAFKNWLKKVGAPVSLKDAGIPEEDIDKIVDNVMLLVEKNLKPKGASLGRIMVLEREDVREILKLAAK,soluble
2,MGSDKIHHHHHHMDINLRFFSRLNPWLNSLFTSKATLKTEIDEAQQGQMSLKTIANQYPLQARRGPITQVMLYQSLYASDDFVGREKQLNQITDVINQWRNHHGEISAIVSPAGSGGSSFLGQLPPLLQTIIADDAKKAPMPDVKPLPSKWLLMSFYQAPLGANGAIAHVCYCFGITPPNTITETIAAINQQPPQLIMIDDMHKLMLRMMGNNQALVTFATIVMETRKHHCWIMGCEIFAWQRLSAQYQIHHFIKHVFQLDYFSETELATIQTKHLLDLGLISNDVMAKETTTTPPNNTNKSTKEQTEQANIEQVDIVNPYKDQLKQLYTISQGHPKLASLLLQYSLAHQVDIGSDNSSNSRSNNGIDICRINSSVLQQCQDNDLFSVAEIYVHGGLRVSQHAHIFAITIEQSSLQLEYLARQGLIIAQYSQQDFAEHFYFITPTLSKIIANHLVNNNKLFN,not soluble
3,MARALADLSVNLQVPRVVPSPDSDSDTDLEDPSPRRSAGGLHRSQVIHSGHFMVSSPHSDSLTRRRDQEGPVGLADFGPRSIDPTLTHLFECLSLAYSGKLVSPKWKNFKGLKLLCRDKIRLNNAIWRAWYIQYVQRRKSPVCGFVTPLQGSEADEHRKPEAVILEGNYWKRRIEVVMREYHKWRIYYKKRVSGTDTCRPWVLRVLEGIARPHPNPYL,soluble
4,MPKFEVPDGWTVQAFRFTLDPTEDQAKALARHFGARRKAYNWTVATLKADIQAWHASGTVTAKPSLRVLRKRWNTVKDDVCVNTETGVAWWPECSKEAYADGIAGAVEAYWNWQTSRAGKRAGKRVGFPRFKRKGRDQDRVSFTTGAMRVEPDRRHLTLPVIGTVRTHENTRRIERLIKAGRARVLAISVRRNGTRLDASVRVLVQRPQQPKVVHPGSRVGVDVGVRRLATVATADGTAIEQVENPRPLGAALRELRHVCRARSRCTKGSRRYRERTTQISRLHRRVNDVRTHHLHVLTTRLAQTHGRIVVEGLDATEMLRQKGLPGARARRRGLSDAALGTPRRHLSYKTVWYGSALVVADRWFPSSKTCHACRHVQDIGWDEQWQCDRCSVVHQRDDCAAINLARYEETSSIVGPVGAAVKRGADRKTGPRPAGGCEARKGSSPKAAEQPRDGVQVA,not soluble
5,MELMIGRVVKSHGIRGEVAIEVTTEEPEIRFAQGEVLNGRQGGKEHSLTIASVRPHQNRLLVKFKEIADRTAADSLRGTRFFAAPLDDDVDDGFYDHELEGLAVIHGEEKIGEVSGVIHGPAQSLLEVTLESGKEVLIPFVHDIVPEVDLDAGTCVITPPEGLLELLEHHHHHH,soluble
6,MSLGVTVSKNEAQRLENLTRDALLSTRRLSLIVDLDQTIIHTTVDPTVAEWMDEIHREEMKDAQEKANVPTEEVKGKGEETTTPPGSPGPGALGITVESPKEKNPNAEALRDVAKFQIADDLPPGYVKLKTKTTKGQNPPESEGRWYFTKPRPGLQRFLDEMCQLYEMHVYTMGTRTYADAIVKVIDPDGKIFGGRILSRDESGSFSSKNLKRLFPTDTSMVVVIDDRSDVWGDCPNLVKVVPYDFFLGIGDINSSFLPTNKSTEGHHHHHH,soluble
7,MTGVRQDAWTKEEDELLANVVLQYIREGGTQLEAFAEVGRRLSRTAAACGFRWNSCVRKQYKEEIEQAKQERKMRKKETPSTKESEGQAKVETAVKSHLSWAEVLAFLQAEEQKARDARRTADENRALKNDMEQLQQMVTKLQMEKESLQKQLAAIQEEYKTLLSIMERARKMVTDSGKPAPNAVAEGVDEG,not soluble
8,MAHHHHHHMADSSCTSAAASVATAAPAFDFKPLQKSNVDLFATAPQVKKLTRREKDKMLRELEVKRAKPRAVDDSSGAAGKGRKGQPRQSDRSAAVAEVVRSATISSSSDDASGIGNKGEKKKSLFETVFDTKEVEKELAAQEDRRSRKRSKKQVLRHALHSNEEEDARTVFVGNLPNTIHKRDVEKIFKSCGSITAVRIRCQALEELDEQHQNMGRAVRVLRGEIKKDAKYSATAYVLFDSAKSIASALEKNGLIFHNRHIVVTTMDVESRAYPPETSIFLGNVAYNTTEEDVWSFFQEHGIADVKRVRLVRDRETGDCKGFGYVEFMHASSVQPAIETRGDKLNGRELRIVHVNKSKEVKVATKSRREKRRSEHAGGRGGAEACKRSRSGGDGDGGSRGSAGYSNFKKPRTDSDLPSWAGLTTNPRRKMPKDLRPLVEGKVEFKPRGPRAPVKRKTRNPEK,soluble
9,MQQLPKLDLKNKVSAQEWQLRVDLAACYRLLQMHGWDDLIHTHISVCIPGTEHILINAFGLAFEEITASNLVKIDIKGNIIDKDCPFEINPAGFTIHSAVHEVRHDDICALHVHTNETIAVASVEEGLLPLSQYSMFALASMSYHDYEGLAVNDDEKLRLQNDLGDKNFMLLRNHGALTMGKTIGDAFMHMYDLTRACQIQLQVMATGMKPIYAPQSIIDGIKAQANIVHDGETGGQKAWPAMLRRVYRNDPTFAE,not soluble
10,MGHHHHHAYTLSKSGKEKEEVDEILEEEAEVDELKSPESVVQLLHIDPIEFEFGYGLIPLADANQGGDLLDRIVMIRRQLALELGLVIPVVRIRDNIALQPNEYRLKIKGNEVAKGELLLDHYLAMSPTPEDDLIEGIETVEPSFGLPAKWISEAVKDEADMLGYTVVDPASVVSTHITEKIKQHAHELIGRQETKQLIDHLKESYPVLVEEVTPNPLSVGDIQKVLAKLLKEKVSIRNLVTIFETLADYGKLTTDSDLLTEYTRQALAKQITAQFAKENEVLKVVTCSGRVEKAIADGVQQTEHGNYLSLEPDISESIVRSVAKEAEQLSLRQETAILLCSPPVRMYVKQLLERYFPDLPVLSYNELEANVEVQSIGVVDI,soluble
11,MPDHLGDDMRKTKKDDTKEEEKNFQALDEGDIAVLKRYGQGPYAEQLKTLDADIENCLKKVNELSGVKESDTGLAPPALWDIAADKQAMQQEQPLQVARCTKIITSDKHDPRYLINVKQFAKFVVDLADSVAPTDIEEGMRVGVDRNKYQIHLPLPAKIDPTVTMMQVEEKPDVTYSDVGGCKDQIEKLREVVETPLLHPERYVNLGIEPPKGVLLYGPPGTGKTLCARAVANRTDACFIRVIGSELVQKYVGEGARMVRELFEMARTKKACLIFFDEIDAVGGARFDDGQGGDNEVQRTMLELINQLDGFDPRGNIKVLMATNRPDTLDPALMRPGRLDRKVEFALPDLAGRAHILKIHAKQMSVERDIRYDLLARLCPNSTGAEIRSVCTEAGMFAIRARRKVATEKDFLEAINKVVKGYAKFSATPRYLTHN,not soluble
12,MSLSDKIRIGMTVSSTGSFVLASQSGVRGVEVWVDDVNRRGGIEIKGKKYPVELVKLDDRSDKQMVTRVYERLIVDEKVDLVFAPFGSTLTAAAGTVTERLGKYMMVWSAASDDLYKQGFKYMVSGTQMPVSAMLRAPMALAGKLGVKKAAILYSDEPFPAGLADGGRAQAAKNGIDVVLYEKYPKGQKDFSTLLQKAKAAGADALVPTSYEGDLISMTRQMKQLDINFPYTFMVYASTPQFQAIGADSNYIFSHTNYHPAINWKVNAGLTREQFGKAYDTLFPKAEFPPDFQTALAYGAGALTEEIIKKAGATDAAALKQASMDLSDKVTVMAGPYAIDETGKQLQMPFPVVQLLPGKGMVPVYPEDVAVEKAVYPAPAWNKAKGIITITTDPNSSSVDKLAAALEHHHHHH,soluble
13,MAHHHHHHMLQLTVEDLTPEAIAALEVQCKAQAEKVNQLEEAMGLLQKELDDARKKYRSTSKAVQWRRLMAEVENDEDIANITVMMQEALADFYKTMQPPDDYDESREGISFCDTDDYADLTSVETKVDEFLLAIRRLVGENCASPEDDGDRRHQRRRALLMLLVLTINAARITDTPTEDAASLMEEQQDNIASLWQTLLHTDSGLVEAEKSEWKDIVSSFLGPPYDTST,soluble
14,MAIHVEHVGVLERAREVSRLEDIITEDNEDIEAEMPKMRDDPAGKEARFLQATDEMSAALTQFMKKKIYEEQLANFLDGEEYVLEDQPIEKTDKVMEALKAATTHDYEVYSFAKKLFPDESDLVVVLRAILRKKQISENVRLNAEALLRKVNQETTKKFINSGINSALKAKLFGQALSLNPKLLRASYRQFLMAEDDAVDTYVEWIGSYGYQNRMLVTKFIKETLFSDINALDASCSSLEFGMFLNKLSQLLSLQSAEALFLKTLMNNPIIKKFISAEDYWIFFLISLIKFPETAEELLNNALVTLPADANYKDKTLLLKAIYSGCTNLPFSLFINNEQLLEIRECCKQAIKVTFAAELFDTQNCNKKQNKKPWKKVMFNV,not soluble
15,MYDFKKINNLRGIERETLRVTDCGNLATSNHPDGLGHKLTNNSITVDFSENLLELITKPHDSIDKAIGELYQLSAFTLDNMHSDEIILNTSMPLSANDNDIQEADFGSSNSGRMKRVYRKGLSARYGKIMQIISGIHYNFSFDKDLISNIATNKQVSISDIYFDVLNNYFEFMWLLPYLFGASPICAKTSVKNKPDYLSVLDDKFYVGEYATSLRMSDLGYTSPAQKDLAISYDNVKAYVKDLIQATDDTFADYKRIGLYNSQGQRIQLNDGILQIENEYYSAIRPKQIAKRGERPACALYNRGVEYVEVRVLDVDPFEPVGISKDTALFVEVMLMTCLDKDAKKYHKDIIKQAKQNLTAVAIQGRNPQLKLKKLDDDSEILLKDYALELFDEIEAVAKKMPKEYLDAVEIQKRKVLDISQTPSAKIIELARQHGYKKFILDISRRVSQQFRSYELPAAIVAKLKDQAGQSVAAEKELVANDKISLDEYINRYYKSSKGCC,not soluble
16,MSLSKAKTLYEKIYDAHVVVAAPGETPILYIDRHLVHEVTSPQAFDGLREKGRPVRQVSKTFATMDHNVSTTTKDINASGEMARIQMQTLSKNCEEFGVTLYDINHKYQGIVHVMGPELGITLPGMTIVCGDSHTATHGAFGSLAFGIGTSEVEHVLATQTLKQGRAKTMKIEVRGKVAPGITAKDIVLAIIGKTTAAGGTGYVVEFCGEAIRDLSMEGRMTVCNMAIELGAKAGLIAPDATTFNYIKGRKFAPQGSDWDAAVDYWQTLKTDEDAQFDAVVTLEASEIKPQVTWGTNPGQVIAVDEPIPSPSQFADPVERSSAEKALAYMGLEAGKMLSDYKVDKVFVGSCTNSRIEDMRAAAAVAKGKKVASHVQALIVPGSEQVKAQAEAEGLDKIFIEAGFEWRLPGCSMCLAMNNDRLGPGERCASTSNRNFEGRQGRDGRTHLVSPAMAAAAAIAGHFVDIRQEGHHHHHH,soluble
17,MKTVRIETFGCKVNQYESEYMAEQLEKAGYVVLPDGNAAYYIVNSCAVTKEVEKKVKRLIKSIRNRNKNAKIILTGCFAQLSPDEAKNLPVDMVLGIDEKKHIVDHINSLNGKQQVVVSEPGRPVYEKVKGSFEDRTRSYIKVEDGCDNTCTYCAIRLARGTRIRSKPLEIFKEEFAEMVMKGYKEIVITGVNLGKYGKDMGSSLAELLKVIEKVPGDYRVRLSSINVEDVNDEIVKAFKRNPRLCPHLHISVQSGSDDVLKRMGRKYKISDFMRVVDKLRSIDPDFSITTDIIVGFPGETDADFQRTLELVEKVEFSRVHIFRFSPRPGTPASRMEGGVPESKKKERLDVLKEKAKDVSIRYRKRIIGKERKVLAEWYVMKGVLSGYDEYYVKHEFVGNRVGEFHSVRVKSLSEEGVISCRADMVEGKVPARGLEHHHHHH,soluble
